Experimental data published in the supplement of paper PMC9112550, “Optimization of the antimicrobial peptide Bac7 by deep mutational scanning” (BMC Biology, 2022).
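Also: peptides expressed intracellularly from a pBAD plasmid library in pooled LB shake-flask culture, induced with 0.3% L-arabinose, DNA abundance read by NGS, three biological replicates, DESeq2 with apeglm shrinkage.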

What follows are sequences tested on Escherichia coli TOP10 (assay: shrunken log2 fold change of peptide-encoding DNA abundance (4.5 h post-induction vs induction); higher = less antimicrobial activity (less host growth inhibition)). Conditions: time post-induction: 4.5 h; library: site-saturation at positions 5, 18, 19, 20.
RRIRMRPPRLPRPRPRPYCLPRP was tested, and the “shrunken log2 fold change” value was 0.146. In the case of RRIRHRPPRLPRPRPRPMLPPRP, the “shrunken log2 fold change” value is reported as -0.0141. With RRIRTRPPRLPRPRPRPLNWPRP the “shrunken log2 fold change” value was -0.246. RRIRHRPPRLPRPRPRPLEHPRP was tested, and the “shrunken log2 fold change” value was -0.00318. With RRIRIRPPRLPRPRPRPQGPPRP the “shrunken log2 fold change” value was -0.0152. For RRIRPRPPRLPRPRPRPSGLPRP, the “shrunken log2 fold change” value was -0.199. For RRIRARPPRLPRPRPRPHRCPRP, the “shrunken log2 fold change” value was 0.0993. In the case of RRIRQRPPRLPRPRPRPHICPRP, the “shrunken log2 fold change” value is reported as -0.049. With RRIRERPPRLPRPRPRPLKFPRP the “shrunken log2 fold change” value was -0.377. RRIRCRPPRLPRPRPRPAMDPRP was tested, and the “shrunken log2 fold change” value was -0.207. RRIRMRPPRLPRPRPRPAELPRP was tested, and the “shrunken log2 fold change” value was 0.604. With RRIRPRPPRLPRPRPRPYSNPRP the “shrunken log2 fold change” value was -1.31. In the case of RRIRVRPPRLPRPRPRPHSWPRP, the “shrunken log2 fold change” value is reported as 0.0662. In the case of RRIRRRPPRLPRPRPRPMIIPRP, the “shrunken log2 fold change” value is reported as -0.171. In the case of RRIRSRPPRLPRPRPRPERFPRP, the “shrunken log2 fold change” value is reported as 0.196. In the case of RRIRARPPRLPRPRPRPYITPRP, the “shrunken log2 fold change” value is reported as -0.904. For RRIRRRPPRLPRPRPRPWHFPRP, the “shrunken log2 fold change” value was 0.121. For RRIRARPPRLPRPRPRPPFCPRP, the “shrunken log2 fold change” value was 0.31. In the case of RRIRIRPPRLPRPRPRPEIVPRP, the “shrunken log2 fold change” value is reported as -0.255. For RRIRYRPPRLPRPRPRPDGEPRP, the “shrunken log2 fold change” value was -0.159. With RRIRIRPPRLPRPRPRPPSDPRP the “shrunken log2 fold change” value was -0.101. RRIRMRPPRLPRPRPRPMITPRP was tested, and the “shrunken log2 fold change” value was -0.0461. RRIRPRPPRLPRPRPRPSCRPRP was tested, and the “shrunken log2 fold change” value was -0.129. For RRIRRRPPRLPRPRPRPCNQPRP, the “shrunken log2 fold change” value was -0.0711. In the case of RRIRRRPPRLPRPRPRPHDLPRP, the “shrunken log2 fold change” value is reported as 0.22. RRIRKRPPRLPRPRPRPGKMPRP was tested, and the “shrunken log2 fold change” value was -0.0991. RRIRQRPPRLPRPRPRPLMPPRP was tested, and the “shrunken log2 fold change” value was -0.0453. In the case of RRIRHRPPRLPRPRPRPKDNPRP, the “shrunken log2 fold change” value is reported as -0.201. With RRIRIRPPRLPRPRPRPGFSPRP the “shrunken log2 fold change” value was -0.0749. RRIRPRPPRLPRPRPRPSMCPRP was tested, and the “shrunken log2 fold change” value was -0.0117. For RRIRYRPPRLPRPRPRPGEFPRP, the “shrunken log2 fold change” value was -0.35. RRIRLRPPRLPRPRPRPTQNPRP was tested, and the “shrunken log2 fold change” value was 0.404. In the case of RRIRWRPPRLPRPRPRPPNNPRP, the “shrunken log2 fold change” value is reported as -0.0673. With RRIRSRPPRLPRPRPRPMAGPRP the “shrunken log2 fold change” value was 0.119. RRIRSRPPRLPRPRPRPTHHPRP was tested, and the “shrunken log2 fold change” value was 0.189. For RRIRMRPPRLPRPRPRPGKGPRP, the “shrunken log2 fold change” value was 0.0403. In the case of RRIRMRPPRLPRPRPRPGGWPRP, the “shrunken log2 fold change” value is reported as 1.32. In the case of RRIRGRPPRLPRPRPRPPGVPRP, the “shrunken log2 fold change” value is reported as 0.931. For RRIRVRPPRLPRPRPRPELVPRP, the “shrunken log2 fold change” value was 0.14. RRIRNRPPRLPRPRPRPWDAPRP was tested, and the “shrunken log2 fold change” value was -0.157. RRIRERPPRLPRPRPRPICFPRP was tested, and the “shrunken log2 fold change” value was -0.221. For RRIRSRPPRLPRPRPRPNPPPRP, the “shrunken log2 fold change” value was -0.222. In the case of RRIRTRPPRLPRPRPRPQVIPRP, the “shrunken log2 fold change” value is reported as -0.232. For RRIRCRPPRLPRPRPRPFSGPRP, the “shrunken log2 fold change” value was -0.275. In the case of RRIRDRPPRLPRPRPRPGGEPRP, the “shrunken log2 fold change” value is reported as 1.41. For RRIRMRPPRLPRPRPRPDEFPRP, the “shrunken log2 fold change” value was 1.49. With RRIRARPPRLPRPRPRPPPNPRP the “shrunken log2 fold change” value was 1.35. In the case of RRIRVRPPRLPRPRPRPFVWPRP, the “shrunken log2 fold change” value is reported as -0.03. In the case of RRIRQRPPRLPRPRPRPACCPRP, the “shrunken log2 fold change” value is reported as 0.162. With RRIRLRPPRLPRPRPRPDEDPRP the “shrunken log2 fold change” value was 0.0258. For RRIRVRPPRLPRPRPRPMVCPRP, the “shrunken log2 fold change” value was -0.062. In the case of RRIRFRPPRLPRPRPRPEWKPRP, the “shrunken log2 fold change” value is reported as 0.0211. In the case of RRIRARPPRLPRPRPRPGENPRP, the “shrunken log2 fold change” value is reported as 0.687. RRIRLRPPRLPRPRPRPLGRPRP was tested, and the “shrunken log2 fold change” value was 0.0726. In the case of RRIRHRPPRLPRPRPRPLYHPRP, the “shrunken log2 fold change” value is reported as -0.198. With RRIRHRPPRLPRPRPRPAYCPRP the “shrunken log2 fold change” value was 0.119. For RRIRGRPPRLPRPRPRPKYRPRP, the “shrunken log2 fold change” value was 0.000233. For RRIRVRPPRLPRPRPRPFFLPRP, the “shrunken log2 fold change” value was -0.294. With RRIRFRPPRLPRPRPRPILGPRP the “shrunken log2 fold change” value was 0.0151. In the case of RRIRGRPPRLPRPRPRPPPHPRP, the “shrunken log2 fold change” value is reported as 1.26. In the case of RRIRTRPPRLPRPRPRPYRNPRP, the “shrunken log2 fold change” value is reported as -0.21. With RRIRRRPPRLPRPRPRPKDFPRP the “shrunken log2 fold change” value was -0.123. With RRIRWRPPRLPRPRPRPQRPPRP the “shrunken log2 fold change” value was -0.00892. For RRIRGRPPRLPRPRPRPGLQPRP, the “shrunken log2 fold change” value was 0.236. With RRIRSRPPRLPRPRPRPYPWPRP the “shrunken log2 fold change” value was -0.591. RRIRIRPPRLPRPRPRPSQCPRP was tested, and the “shrunken log2 fold change” value was -0.0584. RRIRSRPPRLPRPRPRPQHSPRP was tested, and the “shrunken log2 fold change” value was -0.658. In the case of RRIRVRPPRLPRPRPRPQSQPRP, the “shrunken log2 fold change” value is reported as -0.214. In the case of RRIRARPPRLPRPRPRPSRAPRP, the “shrunken log2 fold change” value is reported as 0.555. RRIRARPPRLPRPRPRPCVDPRP was tested, and the “shrunken log2 fold change” value was 0.581. In the case of RRIRRRPPRLPRPRPRPPFFPRP, the “shrunken log2 fold change” value is reported as 0.565. For RRIRNRPPRLPRPRPRPYKKPRP, the “shrunken log2 fold change” value was -0.00559. In the case of RRIRIRPPRLPRPRPRPLGMPRP, the “shrunken log2 fold change” value is reported as -0.268. RRIRARPPRLPRPRPRPDAQPRP was tested, and the “shrunken log2 fold change” value was 1.35. RRIRQRPPRLPRPRPRPVILPRP was tested, and the “shrunken log2 fold change” value was -0.0369. With RRIRCRPPRLPRPRPRPTSIPRP the “shrunken log2 fold change” value was -0.343. With RRIRKRPPRLPRPRPRPFATPRP the “shrunken log2 fold change” value was 0.45. RRIRFRPPRLPRPRPRPLYQPRP was tested, and the “shrunken log2 fold change” value was -0.374. With RRIRLRPPRLPRPRPRPAIKPRP the “shrunken log2 fold change” value was -0.139. For RRIRFRPPRLPRPRPRPFFRPRP, the “shrunken log2 fold change” value was -0.213. For RRIRARPPRLPRPRPRPCFKPRP, the “shrunken log2 fold change” value was 0.0174. With RRIRPRPPRLPRPRPRPTAHPRP the “shrunken log2 fold change” value was 0.231. In the case of RRIRVRPPRLPRPRPRPSQGPRP, the “shrunken log2 fold change” value is reported as -0.371. In the case of RRIRSRPPRLPRPRPRPMPYPRP, the “shrunken log2 fold change” value is reported as -0.278. RRIRLRPPRLPRPRPRPMNHPRP was tested, and the “shrunken log2 fold change” value was -0.409. In the case of RRIRERPPRLPRPRPRPAIEPRP, the “shrunken log2 fold change” value is reported as -0.136. In the case of RRIRFRPPRLPRPRPRPDAFPRP, the “shrunken log2 fold change” value is reported as -0.491. RRIRMRPPRLPRPRPRPHPRPRP was tested, and the “shrunken log2 fold change” value was 1.04. In the case of RRIRIRPPRLPRPRPRPMRCPRP, the “shrunken log2 fold change” value is reported as -0.0263. With RRIRGRPPRLPRPRPRPDSCPRP the “shrunken log2 fold change” value was 0.426. With RRIRPRPPRLPRPRPRPDEEPRP the “shrunken log2 fold change” value was 0.0245. In the case of RRIRARPPRLPRPRPRPEVHPRP, the “shrunken log2 fold change” value is reported as 3.57. RRIRHRPPRLPRPRPRPYHAPRP was tested, and the “shrunken log2 fold change” value was -1.21. For RRIRWRPPRLPRPRPRPCTSPRP, the “shrunken log2 fold change” value was -0.174. For RRIRNRPPRLPRPRPRPGLYPRP, the “shrunken log2 fold change” value was -0.581. RRIRARPPRLPRPRPRPVCNPRP was tested, and the “shrunken log2 fold change” value was 0.0721. In the case of RRIRIRPPRLPRPRPRPAEFPRP, the “shrunken log2 fold change” value is reported as -0.0793. RRIRKRPPRLPRPRPRPWRGPRP was tested, and the “shrunken log2 fold change” value was 0.155. RRIRPRPPRLPRPRPRPIPKPRP was tested, and the “shrunken log2 fold change” value was 0.28. With RRIRLRPPRLPRPRPRPLYYPRP the “shrunken log2 fold change” value was -0.274. In the case of RRIRQRPPRLPRPRPRPTQDPRP, the “shrunken log2 fold change” value is reported as 0.508. With RRIRERPPRLPRPRPRPIHAPRP the “shrunken log2 fold change” value was 0.0259. With RRIRMRPPRLPRPRPRPLKEPRP the “shrunken log2 fold change” value was 0.701. With RRIRCRPPRLPRPRPRPHPMPRP the “shrunken log2 fold change” value was -0.243. RRIRQRPPRLPRPRPRPAGPPRP was tested, and the “shrunken log2 fold change” value was -0.000608. With RRIRDRPPRLPRPRPRPWDAPRP the “shrunken log2 fold change” value was 0.207. With RRIRLRPPRLPRPRPRPSHCPRP the “shrunken log2 fold change” value was -0.117. For RRIRGRPPRLPRPRPRPTCVPRP, the “shrunken log2 fold change” value was 1.04. For RRIRGRPPRLPRPRPRPCQNPRP, the “shrunken log2 fold change” value was 0.0697. In the case of RRIRTRPPRLPRPRPRPLFDPRP, the “shrunken log2 fold change” value is reported as -0.451. RRIRIRPPRLPRPRPRPSEAPRP was tested, and the “shrunken log2 fold change” value was -0.0351. RRIRLRPPRLPRPRPRPVRWPRP was tested, and the “shrunken log2 fold change” value was 0.928. In the case of RRIRFRPPRLPRPRPRPPFNPRP, the “shrunken log2 fold change” value is reported as -0.245. With RRIRTRPPRLPRPRPRPHPWPRP the “shrunken log2 fold change” value was -0.0609. In the case of RRIRFRPPRLPRPRPRPQVWPRP, the “shrunken log2 fold change” value is reported as 0.135. In the case of RRIRGRPPRLPRPRPRPSSHPRP, the “shrunken log2 fold change” value is reported as -0.0172. For RRIRGRPPRLPRPRPRPTISPRP, the “shrunken log2 fold change” value was 0.534. For RRIRYRPPRLPRPRPRPIGVPRP, the “shrunken log2 fold change” value was -0.0936. For RRIRIRPPRLPRPRPRPCILPRP, the “shrunken log2 fold change” value was -0.55. For RRIRNRPPRLPRPRPRPPVVPRP, the “shrunken log2 fold change” value was 0.000966. RRIRLRPPRLPRPRPRPQPDPRP was tested, and the “shrunken log2 fold change” value was -0.161. RRIRLRPPRLPRPRPRPDMCPRP was tested, and the “shrunken log2 fold change” value was -0.0164. With RRIRIRPPRLPRPRPRPFRNPRP the “shrunken log2 fold change” value was -0.902. For RRIRCRPPRLPRPRPRPLQHPRP, the “shrunken log2 fold change” value was -0.0615. For RRIRERPPRLPRPRPRPMWCPRP, the “shrunken log2 fold change” value was 0.0762.
